Measured values from patent US20220220224A1 (Hoffmann-La Roche, published 2022).
Like-named read-outs stand apart in the source and are kept apart here.

Tests used:
[1] = biological target: T1, human FolR1 expressed on cells (HeLa, SKOV3, HT-29, transfected HEK cells) (human, UniProt P15328 25-234); assay: cell-based or functional assay
[2] = biological target: T2, recombinant biotinylated monomeric Fc fusion of cynomolgus Folate Receptor 1 (cy FolR1 ECD-AcTev-Fcknob-Avi … (cynomolgus, UniProt P0DOX5 223-449 = IgG part, biotin on the C-terminal Avi tag)); assay: SPR Biacore, avidity (bivalent, apparent KD), antigen-Fc on SA chip
T2 construct: also called cyFolR1-Fc; cyno FolR1
Experimental: (§1) All SPR experiments were performed on a Biacore T200 at 25° C. with HBS-EP as running buffer (0.01 M HEPES pH 7.4, 0.15 M NaCl, 3 mM EDTA, 0.005% Surfactant P20, Biacore, GE Healthcare). The molecules used for affinity and avidity determination are described in Table 45.
(§2) Recombinant biotinylated monomeric Fc fusions of human, cynomolgus and murine Folate Receptor 1 (FolR1-Fc) were directly coupled on a SA chip using the standard coupling instruction (Biacore, GE Healthcare). The immobilization level was about 200-300 RU. […] The dissociation was monitored for 240 or 600 seconds. The chip surface was regenerated after every cycle using a double injection of 30 sec 10 mM Glycine-HCl pH 1.5. Bulk refractive index differences were corrected for by subtracting the response obtained on reference flow cell immobilized with recombinant biotinylated murine IL2R Fc fusion (unrelated Fc fused receptor). The binding curves resulting from the bivalent binding of the T cell bispecifics were approximated to a 1:1 Langmuir binding (even though it is a 1:2 binding) and fitted with that model to get an apparent KD representing the avidity of the bivalent binding. The apparent avidity constants for the interactions were derived from the rate constants of the fitting using the Bia Evaluation software (GE Healthcare).

[3] = biological target: T3, recombinant biotinylated monomeric Fc fusion of human Folate Receptor 1 (huFolR1 ECD-AcTev-Fcknob-Avi tag … (human, UniProt P0DOX5 223-449 = IgG part, biotin on the C-terminal Avi tag)); assay: as above
T3 construct: also called huFolR1-Fc; human FolR1-Fc
Experimental: as §1, §2

[4] = biological target: T4, recombinant biotinylated monomeric Fc fusion of human Folate Receptor 3 (hu FolR3 ECD-AcTev-Fcknob-Avi tag … (human, UniProt P0DOX5 223-449 = IgG part, biotin on the C-terminal Avi tag)); assay: SPR Biacore, single injection on immobilized antigen-Fc
T4 construct: also called FolR3-Fc
Experimental: as §1
(§3) First the anti-FolR1 TCBs were analyzed by single injections (Table 46) to characterize their crossreactivity (to human, murine and cyno FolR1) and specificity (to human FolR1, human FolR2, human FolR3). Recombinant biotinylated monomeric Fc fusions of human, cynomolgus and murine Folate Receptor 1 (FolR1-Fc) or human Folate Receptor 2 and 3 (FolR2-Fc, FolR3-Fc) were directly coupled on a SA chip using the standard coupling instruction (Biacore, Freiburg/Germany). The immobilization level was about 300-400 RU. The TCBs were injected for 60 seconds at a concentration of 500 nM.

[5] = biological target: T5, recombinant biotinylated monomeric Fc fusion of human Folate Receptor 2 (hu FolR2 ECD-AcTev-Fcknob-Avi tag … (human, UniProt P0DOX5 223-449 = IgG part, biotin on the C-terminal Avi tag)); assay: as above
T5 construct: also called FolR2-Fc
Experimental: as §1, §3

[6] = biological target: T6, recombinant biotinylated monomeric Fc fusion of murine Folate Receptor 1 (mu FolR1 ECD-AcTev-Fcknob-Avitag … (murine, UniProt P0DOX5 223-449 = IgG part, biotin on the C-terminal Avi tag)); assay: as above
T6 construct: also called muFolR1-Fc; murine FolR1
Experimental: as §1, §3

[7] = biological target: T1, human FolR1 expressed on cells (HeLa, …); assay: cell-based or functional assay; remark: listed apart in the source
[8] = biological target: T2, recombinant biotinylated monomeric Fc …; assay: SPR Biacore, affinity (monovalent), antibody captured via anti-Fab
Experimental: as §1
(§4) For affinity measurement, direct coupling of around 12000 resonance units (RU) of the anti-human Fab specific antibody (Fab capture kit, GE Healthcare) was performed on a CM5 chip at pH 5.0 using the standard amine coupling kit (GE Healthcare). Anti-FolR1 T cell bispecifics were captured at 20 nM with a flow rate of 10 μl/min for 40 sec, the reference flow cell was left without capture. […] The dissociation phase was monitored for 300 s and triggered by switching from the sample solution to HBS-EP. The chip surface was regenerated after every cycle using a double injection of 60 sec 10 mM Glycine-HCl pH 2.1. Bulk refractive index differences were corrected for by subtracting the response obtained on the reference flow cell 1. The affinity constants for the interactions were derived from the rate constants by fitting to a 1:1 Langmuir binding using the Bia Evaluation software (GE Healthcare). For low affinity kinetics with association and dissociation phases too fast to be fitted by the 1:1 Langmuir binding model, the steady state analysis model was applied using the Bia Evaluation software (GE Healthcare). The steady state analysis gives the KD of the binding reaction at equilibrium.

[9] = biological target: T3, recombinant biotinylated monomeric Fc …; assay: as above
Experimental: as §1, §4

[10] = biological target: T3, recombinant biotinylated monomeric Fc …; assay: SPR Biacore, avidity (bivalent)
[11] = biological target: T3, recombinant biotinylated monomeric Fc …; assay: SPR Biacore, affinity (monovalent)
[12] = biological target: T2, recombinant biotinylated monomeric Fc …; assay: SPR Biacore, avidity set-up, steady state
Experimental: (§5) The avidity of the interaction between the anti-FolR1 IgGs or T cell bispecifics and the recombinant folate receptors was determined as described below (Table 41).
(§6) Recombinant biotinylated monomeric Fc fusions of human, cynomolgus and murine Folate Receptor 1 (FolR1-Fc) were directly coupled on a SA chip using the standard coupling instruction (Biacore, Freiburg/Germany). The immobilization level was about 300. […] The dissociation was monitored for 240 or 600 seconds. Bulk refractive index differences were corrected for by subtracting the response obtained on reference flow cell immobilized with recombinant biotinylated murine IL2 receptor Fc fusion. The binding curves resulting from the bivalent binding of the IgG or T cell bispecifics were approximated to a 1:1 Langmuir binding (even though it is a 1:2 binding) and fitted with that model to get an apparent KD representing the avidity of the bivalent binding. The apparent avidity constants for the interactions were derived from the rate constants of the fitting using the Bia Evaluation software (GE Healthcare). For low affinity kinetics with association and dissociation phases too fast to be fitted by the 1:1 Langmuir binding model, the steady state analysis model was applied using the Bia Evaluation software (GE Healthcare). The steady state analysis gives the KD of the binding reaction at equilibrium.

[13] = biological target: T3, recombinant biotinylated monomeric Fc …; assay: SPR Biacore, avidity set-up, steady state
Experimental: as §5, §6

[14] = biological target: T6, recombinant biotinylated monomeric Fc …; assay: SPR Biacore, single injection 500 nM on immobilized antigen-Fc
Experimental: Binding of FolR1 binders as IgG or in the T-cell bispecific format to different recombinant folate receptors (human FolR1, 2 and 3, murine FolR1 and cynomolgus FolR1; all as Fc fusions) was assessed by surface plasmon resonance (SPR). All SPR experiments were performed on a Biacore T200 at 25° C. with HBS-EP as running buffer (0.01 M HEPES pH 7.4, 0.15 M NaCl, 3 mM EDTA, 0.005% Surfactant P20, Biacore, Freiburg/Germany).
as §3, with “IgGs” for “TCBs”, “1)” for “46)”

[15] = biological target: T4, recombinant biotinylated monomeric Fc …; assay: SPR Biacore, single injection on immobilized antigen-Fc; remark: listed apart in the source
In short: (§7)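 Biacore T200 at 25 °C in HBS-EP (HEPES pH 7.4). Biotinylated FolR-Fc fusions captured on SA chip at about 300-400 RU. IgGs injected once at 500 nM for 60 s to assess cross-reactivity and specificity.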

[16] = biological target: T5, recombinant biotinylated monomeric Fc …; assay: as above; remark: listed apart in the source
In short: as §7

[17] = biological target: T1, human FolR1 expressed on cells (HeLa, …); assay: cell-based or functional assay; remark: listed apart in the source

T1 sequence (P15328 25-234): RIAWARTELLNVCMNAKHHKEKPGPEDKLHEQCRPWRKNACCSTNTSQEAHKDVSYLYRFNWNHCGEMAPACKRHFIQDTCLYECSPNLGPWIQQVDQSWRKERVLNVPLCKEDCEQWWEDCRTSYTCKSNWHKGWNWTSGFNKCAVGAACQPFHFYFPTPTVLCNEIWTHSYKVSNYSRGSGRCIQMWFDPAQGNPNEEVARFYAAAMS

B1: 16D5 G49S/S93A TCB (2+1 inverted, common light chain) (bispecific antibody, V domains shown)
VH 1: not shown
VL: QTVVTQEPSLTVSPGGTVTLTCGSSTGAVTTSNYANWVQQKPGQAPRGLIGGTNKRAPGTPARFSGSLLGGKAALTLSGVQPEDEAEYYCALWYANLWVFGGGTKLTVL
VH 2: not shown
- EC50 of T-cell killing of Hela, 24 h [1]: 2.3 pM
- EC50 of T-cell killing of SKov-3, 24 h [1]: 430 pM
- Kd [2]: 20 nM
- koff [2]: 0.00784 s⁻¹
- kon [2]: 454000 M⁻¹ s⁻¹
- Kd [3]: 10 nM
- koff [3]: 0.00209 s⁻¹
- kon [3]: 149000 M⁻¹ s⁻¹
- binding result [4]: no binding (tested: 500 nM)
- binding result [5]: no binding (tested: 500 nM)
- binding result [6]: no binding (tested: 500 nM)
- EC50 of T-cell killing of HT-29, 48 h [7]: 99.3 pM
- EC50 of T-cell killing of Hela, 48 h [7]: 0.9 pM
- EC50 of T-cell killing of SKov-3, 48 h [7]: 95.9 pM
- Kd [8]: 420 nM
- koff [8]: 0.0086 s⁻¹
- kon [8]: 20500 M⁻¹ s⁻¹
- Kd [9]: 830 nM
- koff [9]: 0.00837 s⁻¹
- kon [9]: 10100 M⁻¹ s⁻¹
- fold lower avidity than 16D5 WT (3 nM) [10]: 3 fold
- fold lower affinity than 16D5 WT (57 nM) [11]: 14.5 fold

B2: 16D5 IgG variant W96Y/K53A (HC/LC) (antibody, V domains shown)
VH: not shown
VL: QTVVTQEPSLTVSPGGTVTLTCGSSTGAVTTSNYANWVQQKPGQAPRGLIGGTNARAPGTPARFSGSLLGGKAALTLSGVQPEDEAEYYCALWYSNLWVFGGGTKLTVL
notes: IgG
- Kd [12]: 660 nM
- Kd [13]: 580 nM

B3: 20H7 IgG (antibody, V domains shown)
VH: QVQLVQSGAEVKKPGASVKVSCKASGYTFTSYYMHWVRQAPGQGLEWMGIINPSGGSTSYAQKFQGRVTMTRDTSTSTVYMELSSLRSEDTAVYYCARVGWYRWGYMDYWGQGTLVTVSS
VL: QAVVTQEPSLTVSPGGTVTLTCGSSTGAVTTSNYANWVQEKPGQAFRGLIGGTNKRAPGTPARFSGSLLGGKAALTLSGAQPEDEAEYYCALWYSNLWVFGGGTKLTVL
notes: human IgG1
- binding result [14]: binds
- binding result [15]: no binding (tested: 500 nM)
- binding result [16]: no binding (tested: 500 nM)

B4: 9D11 TCB S100aA (CD3 deamidation variant) (bispecific antibody, human IgG1, kappa, L234A L235A)
heavy 1: not shown
heavy 2: QVQLVQSGAEVKKPGASVKVSCKASGYTFTSYYMHWVRQAPGQGLEWMGIINPSGGPTSYAQKFQGRVTMTRDTSTSTVYMELSSLRSEDTAVYYCARGDFAWLDYWGQGTLVTVSSASTKGPSVFPLAPSSKSTSGGTAALGCLVKDYFPEPVTVSWNSGALTSGVHTFPAVLQSSGLYSLSSVVTVPSSSLGTQTYICNVNHKPSNTKVDKKVEPKSCDKTHTCPPCPAPEAAGGPSVFLFPPKPKDTLMISRTPEVTCVVVDVSHEDPEVKFNWYVDGVEVHNAKTKPREEQYNSTYRVVSVLTVLHQDWLNGKEYKCKVSNKALGAPIEKTISKAKGQPREPQVCTLPPSRDELTKNQVSLSCAVKGFYPSDIAVEWESNGQPENNYKTTPPVLDSDGSFFLVSKLTVDKSRWQQGNVFSCSVMHEALHNHYTQKSLSLSPGK
light 1: not shown
light 2: QAVVTQEPSLTVSPGGTVTLTCGSSTGAVTTSNYANWVQEKPGQAFRGLIGGTNKRAPGTPARFSGSLLGGKAALTLSGAQPEDEAEYYCALWYSNLWVFGGGTKLTVLSSASTKGPSVFPLAPSSKSTSGGTAALGCLVKDYFPEPVTVSWNSGALTSGVHTFPAVLQSSGLYSLSSVVTVPSSSLGTQTYICNVNHKPSNTKVDKKVEPKSC
- EC50 of T-cell killing of SKov-3, 24 h [17]: 1.94 pM
